From article PMC7005798, “Increased circulating levels of Factor H-Related Protein 4 are strongly associated with age-related macular degeneration” (Nature Communications, 2020) come the findings set out here.

Test [1] concerns the target T1, C3b (human, UniProt P01024 23-667; P01024 749-1663). Description: cell-based or functional assay.
The target of test [2] is T1, C3b. Description: ELISA; solid-phase binding assay: C3b adsorbed on microtiter wells (1 ug per well); 100 nM FH or FHL-1 mixed with rising FHR-4 up to 500 nM, 4 h at room temperature in 20 mM HEPES, 130 mM NaCl, 0.05% Tween-20, pH 7.3; bound FH or FHL-1 detected with the OX23 antibody. Particulars: both partners purified. A general note: In an ELISA, binding on a coated surface is turned into a signal by an enzyme label.

T1 sequence (P01024 23-667, chain 1 of 2): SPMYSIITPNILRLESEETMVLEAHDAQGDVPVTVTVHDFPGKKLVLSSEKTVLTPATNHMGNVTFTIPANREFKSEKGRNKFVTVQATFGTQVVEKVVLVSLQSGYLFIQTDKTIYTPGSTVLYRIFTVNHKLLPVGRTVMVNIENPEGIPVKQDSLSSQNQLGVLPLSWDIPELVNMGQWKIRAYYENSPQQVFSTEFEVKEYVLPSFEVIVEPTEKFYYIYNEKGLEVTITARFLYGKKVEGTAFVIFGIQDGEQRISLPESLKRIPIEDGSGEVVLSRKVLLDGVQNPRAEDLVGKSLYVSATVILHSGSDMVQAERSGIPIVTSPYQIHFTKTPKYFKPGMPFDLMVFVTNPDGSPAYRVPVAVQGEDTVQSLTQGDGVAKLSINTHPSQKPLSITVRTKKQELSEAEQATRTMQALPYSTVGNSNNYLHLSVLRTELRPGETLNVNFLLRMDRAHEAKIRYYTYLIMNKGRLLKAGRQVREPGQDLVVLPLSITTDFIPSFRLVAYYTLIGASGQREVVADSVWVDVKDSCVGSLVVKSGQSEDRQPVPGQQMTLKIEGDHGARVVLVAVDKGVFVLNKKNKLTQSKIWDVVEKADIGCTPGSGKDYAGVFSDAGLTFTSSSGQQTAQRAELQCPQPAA
T1 sequence (P01024 749-1663, chain 2 of 2): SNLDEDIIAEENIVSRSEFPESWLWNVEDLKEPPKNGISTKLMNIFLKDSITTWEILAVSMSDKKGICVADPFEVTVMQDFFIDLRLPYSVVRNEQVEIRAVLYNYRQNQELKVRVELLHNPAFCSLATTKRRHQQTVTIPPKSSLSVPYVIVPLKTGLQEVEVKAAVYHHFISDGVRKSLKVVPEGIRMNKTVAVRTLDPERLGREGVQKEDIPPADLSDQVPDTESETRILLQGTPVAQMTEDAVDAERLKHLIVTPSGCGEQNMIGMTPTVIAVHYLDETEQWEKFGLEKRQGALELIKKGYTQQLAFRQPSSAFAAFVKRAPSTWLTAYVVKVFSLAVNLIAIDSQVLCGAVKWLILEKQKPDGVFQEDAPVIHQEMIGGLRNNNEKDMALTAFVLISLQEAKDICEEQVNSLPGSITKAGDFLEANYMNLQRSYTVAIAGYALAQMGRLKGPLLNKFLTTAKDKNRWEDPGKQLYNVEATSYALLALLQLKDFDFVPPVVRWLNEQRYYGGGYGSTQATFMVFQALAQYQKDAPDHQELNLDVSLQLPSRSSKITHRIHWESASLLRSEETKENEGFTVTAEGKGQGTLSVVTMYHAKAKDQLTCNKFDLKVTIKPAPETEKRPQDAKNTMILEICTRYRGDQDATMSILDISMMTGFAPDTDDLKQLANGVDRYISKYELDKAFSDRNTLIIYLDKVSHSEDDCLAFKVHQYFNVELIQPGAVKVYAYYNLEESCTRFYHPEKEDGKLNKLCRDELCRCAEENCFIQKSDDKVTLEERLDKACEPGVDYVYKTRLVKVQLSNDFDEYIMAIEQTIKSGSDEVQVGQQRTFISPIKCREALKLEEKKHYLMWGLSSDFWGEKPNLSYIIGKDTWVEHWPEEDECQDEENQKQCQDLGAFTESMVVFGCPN

B1: Recombinant Factor H-Related Protein 4 (FHR-4), FHR-4B variant (natural protein, human, UniProt Q92496-3 20-331, looked up)
chain: EVKPCDFPEIQHGGLYYKSLRRLYFPAAAGQSYSYYCDQNFVTPSGSYWDYIHCTQDGWSPTVPCLRTCSKSDIEIENGFISESSSIYILNKEIQYKCKPGYATADGNSSGSITCLQNGWSAQPICIKFCDMPVFENSRAKSNGMRFKLHDTLDYECYDGYEISYGNTTGSIVCGEDGWSHFPTCYNSSEKCGPPPPISNGDTTSFLLKVYVPQSRVEYQCQSYYELQGSNYVTCSNGEWSEPPRCIHPCIITEENMNKNNIQLKGKSDIKYYAKTGDTIEFMCKLGYNANTSVLSFQAVCREGIVEYPRCE
Turning to B1, in test [1], the “inhibition of FHL-1/FI-mediated C3b α-chain cleavage in the fluid phase (blocks FHL-1 with C3b); FHR-4 up to a 5-fold molar excess over FHL-1, dose-dependent” value is 2.5 fold molar excess of FHR-4 over FHL-1 for 50% reduction.

B2: complement factor H (FH) (natural protein, human, UniProt P08603 19-1231, looked up)
chain: EDCNELPPRRNTEILTGSWSDQTYPEGTQAIYKCRPGYRSLGNVIMVCRKGEWVALNPLRKCQKRPCGHPGDTPFGTFTLTGGNVFEYGVKAVYTCNEGYQLLGEINYRECDTDGWTNDIPICEVVKCLPVTAPENGKIVSSAMEPDREYHFGQAVRFVCNSGYKIEGDEEMHCSDDGFWSKEKPKCVEISCKSPDVINGSPISQKIIYKENERFQYKCNMGYEYSERGDAVCTESGWRPLPSCEEKSCDNPYIPNGDYSPLRIKHRTGDEITYQCRNGFYPATRGNTAKCTSTGWIPAPRCTLKPCDYPDIKHGGLYHENMRRPYFPVAVGKYYSYYCDEHFETPSGSYWDHIHCTQDGWSPAVPCLRKCYFPYLENGYNQNYGRKFVQGKSIDVACHPGYALPKAQTTVTCMENGWSPTPRCIRVKTCSKSSIDIENGFISESQYTYALKEKAKYQCKLGYVTADGETSGSITCGKDGWSAQPTCIKSCDIPVFMNARTKNDFTWFKLNDTLDYECHDGYESNTGSTTGSIVCGYNGWSDLPICYERECELPKIDVHLVPDRKKDQYKVGEVLKFSCKPGFTIVGPNSVQCYHFGLSPDLPICKEQVQSCGPPPELLNGNVKEKTKEEYGHSEVVEYYCNPRFLMKGPNKIQCVDGEWTTLPVCIVEESTCGDIPELEHGWAQLSSPPYYYGDSVEFNCSESFTMIGHRSITCIHGVWTQLPQCVAIDKLKKCKSSNLIILEEHLKNKKEFDHNSNIRYRCRGKEGWIHTVCINGRWDPEVNCSMAQIQLCPPPPQIPNSHNMTTTLNYRDGEKVSVLCQENYLIQEGEEITCKDGRWQSIPLCVEKIPCSQPPQIEHGTINSSRSSQESYAHGTKLSYTCEGGFRISEENETTCYMGKWSSPPQCEGLPCKSPPEISHGVVAHMSDSYQYGEEVTYKCFEGFGIDGPAIAKCLGEKWSHPPSCIKTDCLSLPSFENAIPMGEKKDVYKAGEQVTYTCATYYKMDGASNVTCINSRWTGRPTCRDTSCVNPPTVQNAYIVSRQMSKYPSGERVRYQCRSPYEMFGDEEVMCLNGNWTEPPQCKDSTGKCGPPPPIDNGDITSFPLSVYAPASSVEYQCQNLYQLEGNKRITCRNGQWSEPPKCLHPCVISREIMENYNIALRWTAKQKLYSRTGESVEFVCKRGYRLSSRSHTLRTTCWDGKLEYPTCAKR
notes: complement factor H, commercially available purified protein; also called CFH; source: bought: Sigma-Aldrich, catalogue no; C5813 (purified)
For B2, the binding result in test [2] is listed as “binds”.
